The results in this text go back to US20060014212A1.

In general, IC50 refers to the concentration needed to halve the response being measured. Higher therefore signals weaker potency.

In assay [1] the target is anti-A026 antibody (IL-1beta PET). As to the kind of experiment: peptide competition assay in 6% BSA.
Assay [2] concerns the target anti-A011 antibody (MEK1 PET). As to the kind of experiment: peptide competition assay in 6% BSA.
The target of assay [3] is anti-A008 antibody (ERK2 PET). As to the kind of experiment: peptide competition assay in 6% BSA.
Assay [4] concerns the target anti-A016 antibody (Thyroglobulin PET). As to the kind of experiment: peptide competition assay in 6% BSA.
Assay [5] has as its target anti-A017 antibody (Troponin I PET). As to the kind of experiment: peptide competition assay in 6% BSA.
Assay [6] deals with anti-A024 antibody (IL-1beta PET). As to the kind of experiment: peptide competition assay in 6% BSA.
Assay [7] deals with anti-A002 antibody (TGFbeta1 PET). Put plainly: peptide competition assay in 6% BSA.
The target in assay [8] is anti-A010 antibody (MEK1 PET). Put plainly: peptide competition assay in 6% BSA.
Assay [9] addresses anti-A003 antibody (TGFbeta1 PET). Put plainly: peptide competition assay in 6% BSA.
For assay [10], the target named is anti-A006 antibody (pERK1 PET). Put plainly: peptide competition assay in 6% BSA.
The target of assay [11] is anti-A037 antibody (C9 PET). As to the kind of experiment: peptide competition assay in 6% BSA.
Assay [12] deals with anti-A023 antibody (PSA PET). As to the kind of experiment: peptide competition assay in 6% BSA.
For assay [13], the target named is anti-A047 antibody (Fibronectin PET). Put plainly: peptide competition assay in 6% BSA.
Assay [14] concerns the target anti-A015 antibody (Thyroglobulin PET). Put plainly: peptide competition assay in 6% BSA.
In assay [15] the target is anti-A044 antibody (Fibronectin PET). As to the kind of experiment: peptide competition assay in 6% BSA.
Assay [16] has as its target anti-A012 antibody (Thyroglobulin PET). Put plainly: peptide competition assay in 6% BSA.
Assay [17] concerns the target anti-A034 antibody (C4 PET). As to the kind of experiment: peptide competition assay in 6% BSA.
Assay [18] addresses anti-A045 antibody (Fibronectin PET). As to the kind of experiment: peptide competition assay in 6% BSA.
For assay [19], the target named is anti-A031 antibody (C3 PET). As to the kind of experiment: peptide competition assay in 6% BSA.
The target in assay [20] is anti-A022 antibody (PSA PET). Put plainly: peptide competition assay in 6% BSA.
The target of assay [21] is anti-A005 antibody (ERK1 PET). As to the kind of experiment: peptide competition assay in 6% BSA.
Assay [22] concerns the target anti-A020 antibody (Troponin I PET). Put plainly: peptide competition assay in 6% BSA.
Assay [23] concerns the target anti-A014 antibody (Thyroglobulin PET). Put plainly: peptide competition assay in 6% BSA.
Assay [24] concerns the target anti-A035 antibody (C4 PET). As to the kind of experiment: peptide competition assay in 6% BSA.
Assay [25] concerns the target anti-A027 antibody (IL-1beta PET). As to the kind of experiment: peptide competition assay in 6% BSA.
Assay [26] has as its target anti-A028 antibody (IL-1beta PET). Put plainly: peptide competition assay in 6% BSA.
Assay [27] addresses anti-A049 antibody (FactorXII PET). Put plainly: peptide competition assay in 6% BSA.
Assay [28] has as its target anti-A025 antibody (IL-1beta PET). As to the kind of experiment: peptide competition assay in 6% BSA.
The target of assay [29] is anti-A021 antibody (PSA PET). Put plainly: peptide competition assay in 6% BSA.
Assay [30] has as its target anti-A001 antibody (TGFbeta1 PET). As to the kind of experiment: peptide competition assay in 6% BSA.
The target in a further assay is antibody C1. Put plainly: peptide competition ELISA: soluble peptide against immobilized target peptide for antibody C1. On the technique in general: In an ELISA, binding on a coated surface is turned into a signal by an enzyme label.
For assay [31], the target named is anti-A013 antibody (Thyroglobulin PET). As to the kind of experiment: peptide competition assay in 6% BSA.
Assay [32] addresses anti-A007 antibody (ERK2 PET). Put plainly: peptide competition assay in 6% BSA.
Assay [33] addresses anti-A043 antibody (CRP PET). As to the kind of experiment: peptide competition assay in 6% BSA.
For assay [34], the target named is anti-A046 antibody (Fibronectin PET). As to the kind of experiment: peptide competition assay in 6% BSA.
Assay [35] has as its target anti-A009 antibody (pERK2 PET). Put plainly: peptide competition assay in 6% BSA.
For assay [36], the target named is anti-A004 antibody (ERK1 PET). As to the kind of experiment: peptide competition assay in 6% BSA.
The target of assay [37] is anti-A039 antibody (C9 PET). Put plainly: peptide competition assay in 6% BSA.

Where no end group is shown, it is not given here.

B1: A026 peptide (IL-1beta), Ac-… (peptide)
peptide: Ac-PTLQLESVDPKC
In turn, B1 showed a 50% inhibitory concentration (IC50) in [1] of 8 nM.

B2: A011 peptide (MEK1), …-NH2 (peptide)
peptide: CGTSSAETNLEALQK-NH2
For the molecule B2, the IC50 in assay [2] came out at 23 nM.

B3: A008 peptide (ERK2), …-NH2 (peptide)
peptide: CDPSDEPIAEAPFK-NH2
Turning to B3, the IC50 in assay [3] is 6 nM.

B4: A016 peptide (Thyroglobulin), …-NH2 (peptide)
peptide: CDEAGQELEGMR-NH2
B4 came in with a concentration for half-maximal inhibition (IC50) in assay [4] of 4 nM.

B5: A017 peptide (Troponin I), Ac-… (peptide)
peptide: Ac-AYATEPHAKC
B5 showed an IC50 in [5] of 10 nM.

B6: A024 peptide (IL-1beta), …-NH2 (peptide)
peptide: CNEDDLFFEADGPK-NH2
As to B6, the half-maximal inhibitory concentration (IC50) in [6] was 0.5 nM.

B7: A002 peptide (TGFbeta1), Ac-… (peptide)
peptide: Ac-PQALEPLPIVYYVGRC
The molecule B7 had an IC50 in [7] of 3 nM. In other words, the single-digit nanomolar range.

B8: A010 peptide (MEK1), Ac-… (peptide)
peptide: Ac-PTPIQLNPAPDGC
The molecule B8 displayed an IC50 in assay [8] of 36 nM. This lies in the double-digit nanomolar range.

B9: A003 peptide (TGFbeta1), …-NH2 (peptide)
peptide: CYIWSLDTQYSK-NH2
Take B9: the IC50 in assay [9] came out at 8 nM.

B10: A006 peptide (ERK1), Ac-… (peptide)
peptide: Ac-IADPEHDHTGC
Take B10: in assay [10], the IC50 worked out at 6 nM.

B11: A037 peptide (C9), …-NH2 (peptide)
peptide: CTEHYEEQIEAFK-NH2
In [11], B11 had an IC50 of 0.5 nM.

B12: A023 peptide (PSA), …-NH2 (peptide)
peptide: CGSIEPEEFLTPK-NH2
As for B12, in [12], the IC50 came to 8 nM. That is a single-digit nanomolar value.

B13: A047 peptide (Fibronectin), Ac-… (peptide)
peptide: Ac-VDVIPVNLPGEHGQRC
For the molecule B13, the IC50 in assay [13] is 10 nM.

B14: A015 peptide (Thyroglobulin), …-NH2 (peptide)
peptide: CDFSTPLAHFDLR-NH2
For the molecule B14, in [14], the IC50 was 4 nM.

B15: A044 peptide (Fibronectin), …-NH2 (peptide)
peptide: CHEGGQSYK-NH2
B15: the IC50 in assay [15] was determined as 8 nM.

B16: A012 peptide (Thyroglobulin), Ac-… (peptide)
peptide: Ac-GGQSAESEEEELC
On to B16, for which the IC50 in assay [16] was determined as 10 nM.

B17: A034 peptide (C4), …-NH2 (peptide)
peptide: CQTDQPIYNPGQR-NH2
Molecule B17 had an IC50 in assay [17] of 4 nM.

B18: A045 peptide (Fibronectin), …-NH2 (peptide)
peptide: CTFYQIGDSWEK-NH2
Take B18: the IC50 in assay [18] was 1 nM.

B19: A031 peptide (C3), …-NH2 (peptide)
peptide: CHYLDETEQWEK-NH2
B19: in assay [19], the half-maximal inhibitory concentration (IC50) came to 5 nM.

B20: A022 peptide (PSA), …-NH2 (peptide)
peptide: CDLPTQEPALG-NH2
B20 showed an IC50 in assay [20] of 8 nM.

B21: A005 peptide (ERK1), …-NH2 (peptide)
peptide: CVAEEPFTFDMELDD-NH2
B21 displayed an IC50 in assay [21] of 6 nM.

B22: A020 peptide (Troponin I), Ac-… (peptide)
peptide: Ac-NIDALSGMEGRC
With B22, the half-maximal inhibitory concentration (IC50) in [22] came to 4 nM.

B23: A014 peptide (Thyroglobulin), …-NH2 (peptide)
peptide: CEIYDTIFAGLD-NH2
For B23, the IC50 in assay [23] turned out to be 5 nM.

B24: A035 peptide (C4), …-NH2 (peptide)
peptide: CEANEDYEDYEYDE-NH2
B24 came in with an IC50 in [24] of 4 nM.

B25: A027 peptide (IL-1beta), …-NH2 (peptide)
peptide: CLEFESAQFPNWY-NH2
Turning to B25, the IC50 in assay [25] was 5 nM. In other words, the single-digit nanomolar range.

B26: A028 peptide (IL-1beta), …-NH2 (peptide)
peptide: CENMPVFLGGTK-NH2
Turning to B26, the IC50 in assay [26] stood at 0.5 nM.

B27: A049 peptide (FactorXII), …-NH2 (peptide)
peptide: CVAGWGHQFEGAEEY-NH2
In assay [27], B27 returned an IC50 of 15 nM.

B28: A025 peptide (IL-1beta), Ac-… (peptide)
peptide: Ac-SLVMSGPYELKC
Regarding B28, the IC50 in assay [28] came to 5 nM.

B29: A021 peptide (PSA), Ac-… (peptide)
peptide: Ac-LSEPAELTDAVKC
For B29, in assay [29], the IC50 came to 8 nM.

B30: A001 peptide (TGFbeta1), Ac-… (peptide)
peptide: Ac-ALYNQHNPGASAAPC
Consider B30, for which, in assay [30], the IC50 was 0.8 nM.

B31: CRP-derived 8-mer PET YEVQGEVF (peptide)
peptide: YEVQGEVF
B31 registered an IC50 in the assay with antibody C1 of 1000 nM.

B32: A013 peptide (Thyroglobulin), Ac-… (peptide)
peptide: Ac-ELAETGLELLC
In turn, B32 came in with an IC50 in assay [31] of 8 nM.

B33: A007 peptide (ERK2), Ac-… (peptide)
peptide: Ac-IEVEQALAHPYLEQC
With B33, in assay [32], the IC50 is 4 nM.

B34: A043 peptide (CRP), …-NH2 (peptide)
peptide: CYEVQGEVFTK-NH2
On to B34, for which, in assay [33], the IC50 was 4 nM.

B35: A046 peptide (Fibronectin), …-NH2 (peptide)
peptide: CTTQNYDADQK-NH2
On to B35, for which, in assay [34], the IC50 was 20 nM.

B36: A009 peptide (ERK2), Ac-… (peptide)
peptide: Ac-VADPDHDHTGC
B36 showed an IC50 in [35] of 31 nM.

B37: A004 peptide (ERK1), Ac-… (peptide)
peptide: Ac-ITVEEALAHPYLEQC
Molecule B37 showed an IC50 in [36] of 25 nM.

B38: A039 peptide (C9), Ac-… (peptide)
peptide: Ac-PWNVASLIYETKC
In the case of B38, the IC50 in assay [37] amounted to 0.4 nM.
